Data taken from PMC9876797, “Structures of the holo CRISPR RNA-guided transposon integration complex” (Nature, 2022).
Where “and” joins values, the source holds several entries; their conditions need not be identical. Equal values may be shown once. Values belong to the compound of their own block, whether it stands above or below them.

Legend:
[1] = molecular target: T1, ShCAST transpososome (TnsC in complex with TnsB, TniQ, Cas12k and S15) (Scytonema hofmannii, UniProt A0A8J0PCL3); experiment: cryo-EM structure; type: binding; details: ATP with Mg2+ in all TnsC protomers; 1 mM ATP, 15 mM MgCl2, pH 7.5; also minor configuration 8EA4
T1 construct: recombinant proteins from E. coli, TwinStrep-SUMO vectors; assembled on sgRNA and strand-transfer DNA; about 961 kDa; 12 TnsC (major) or 13 TnsC (minor); S15 from E. coli K-12 MG1655; with Transposase TnsB; TniQ family protein TniQ; CRISPR-associated effector Cas12k; Small ribosomal subunit protein uS15 (Escherichia coli K-12 MG1655)
T1 sequence (A0A8J0PCL3 entry or part of it): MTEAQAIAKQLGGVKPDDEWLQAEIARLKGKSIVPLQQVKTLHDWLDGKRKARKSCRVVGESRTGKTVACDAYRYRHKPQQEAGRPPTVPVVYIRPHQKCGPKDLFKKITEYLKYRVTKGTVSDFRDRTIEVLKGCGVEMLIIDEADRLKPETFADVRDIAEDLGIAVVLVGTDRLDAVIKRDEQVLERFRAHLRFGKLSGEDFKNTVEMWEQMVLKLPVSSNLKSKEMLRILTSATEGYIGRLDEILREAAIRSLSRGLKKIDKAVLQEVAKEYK
T1 sequence (A0A979HMQ2 entry or part of it, further chain): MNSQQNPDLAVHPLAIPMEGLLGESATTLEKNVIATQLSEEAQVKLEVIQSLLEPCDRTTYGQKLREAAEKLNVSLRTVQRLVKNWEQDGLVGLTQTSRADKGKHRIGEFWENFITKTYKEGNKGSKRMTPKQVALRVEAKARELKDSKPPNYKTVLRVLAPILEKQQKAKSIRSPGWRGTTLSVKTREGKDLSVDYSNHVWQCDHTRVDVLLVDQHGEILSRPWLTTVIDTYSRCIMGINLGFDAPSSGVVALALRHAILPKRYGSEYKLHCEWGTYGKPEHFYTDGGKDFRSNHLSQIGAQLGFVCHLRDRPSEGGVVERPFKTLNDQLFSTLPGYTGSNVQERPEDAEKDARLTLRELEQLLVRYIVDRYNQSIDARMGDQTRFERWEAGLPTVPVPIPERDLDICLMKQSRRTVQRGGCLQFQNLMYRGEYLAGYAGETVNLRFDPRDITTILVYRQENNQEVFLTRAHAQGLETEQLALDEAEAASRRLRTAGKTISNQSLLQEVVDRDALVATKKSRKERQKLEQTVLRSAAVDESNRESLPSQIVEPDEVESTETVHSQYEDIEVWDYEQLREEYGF
T1 sequence (A0A8J0PCL5 entry or part of it, further chain): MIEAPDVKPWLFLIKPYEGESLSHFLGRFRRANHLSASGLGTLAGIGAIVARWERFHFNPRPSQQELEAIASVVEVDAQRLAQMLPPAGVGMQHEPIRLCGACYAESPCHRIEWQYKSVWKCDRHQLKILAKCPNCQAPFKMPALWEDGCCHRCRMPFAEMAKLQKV
T1 sequence (A0A8M0FGU0 entry or part of it, further chain): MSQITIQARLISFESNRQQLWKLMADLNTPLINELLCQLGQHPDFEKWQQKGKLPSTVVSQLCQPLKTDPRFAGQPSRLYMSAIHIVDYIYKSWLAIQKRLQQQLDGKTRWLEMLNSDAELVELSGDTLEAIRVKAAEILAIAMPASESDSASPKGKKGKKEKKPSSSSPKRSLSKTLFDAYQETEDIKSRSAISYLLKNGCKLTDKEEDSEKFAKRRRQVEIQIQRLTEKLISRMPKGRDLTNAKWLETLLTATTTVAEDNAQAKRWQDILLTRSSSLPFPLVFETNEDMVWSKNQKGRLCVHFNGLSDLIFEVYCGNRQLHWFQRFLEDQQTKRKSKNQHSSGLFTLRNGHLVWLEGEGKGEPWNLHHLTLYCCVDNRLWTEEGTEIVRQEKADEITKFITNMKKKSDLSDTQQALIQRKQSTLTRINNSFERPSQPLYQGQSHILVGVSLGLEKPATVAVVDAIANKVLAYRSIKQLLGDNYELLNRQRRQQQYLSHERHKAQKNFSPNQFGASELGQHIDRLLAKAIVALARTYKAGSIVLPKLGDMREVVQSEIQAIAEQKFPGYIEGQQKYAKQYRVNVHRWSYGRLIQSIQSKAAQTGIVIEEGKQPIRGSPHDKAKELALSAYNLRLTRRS

[2] = molecular target: TnsB (ShCAST transposase), wild type (Scytonema hofmannii); experiment: cryo-EM structure; ShCAST transpososome assembled stepwise on streptavidin beads through desthiobiotinylated target-pot DNA (Cas12k-sgRNA, S15, TniQ, TnsC, 1 mM ATP, then TnsB with donor-pot DNA), 37 °C, 20 mM HEPES pH 7.5, 250 mM KCl, 15 mM MgCl2, eluted with biotin; major (12 TnsC) and minor (13 TnsC) configurations from one data set
[3] = molecular target: TnsC (ShCAST AAA+ regulator) (Scytonema hofmannii)
Target sequence in this assay (A0A8J0PCL3 entry or part of it): as the sequence (A0A8J0PCL3 entry or part of it) above

[4] = molecular target: TnsC (ShCAST AAA+ regulator) (Scytonema hofmannii); experiment: cryo-EM structure; ShCAST transpososome assembled stepwise on streptavidin beads through desthiobiotinylated target-pot DNA (Cas12k-sgRNA, S15, TniQ, TnsC, 1 mM ATP, then TnsB with donor-pot DNA), 37 °C, 20 mM HEPES pH 7.5, 250 mM KCl, 15 mM MgCl2, eluted with biotin; major (12 TnsC) and minor (13 TnsC) configurations from one data set

Compound: Nc1ncnc2c1ncn2[C@@H]1O[C@H](COP(=O)(O)OP(=O)(O)OP(=O)(O)O)[C@@H](O)[C@H]1O [ATP]
cryo-EM structure [1]: This improved map demonstrates that ATP is bound to all protomers

stoichiometry N [2]: 4
on-target percentage of in vitro transposition (Illumina sequencing), in the absence of S15 [3]: 69%
on-target percentage of in vitro transposition (Illumina sequencing), with S15 [3]: 99%
Compound: TnsB (ShCAST transposase), wild type (enzyme)

on-target percentage of in vitro transposition (Illumina sequencing), in the absence of S15 [3]: < 6%
Compound: TnsB R432A (enzyme)

on-target percentage of in vitro transposition (Illumina sequencing), in the absence of S15 [3]: < 6%
Compound: TnsB Y439A (enzyme)

stoichiometry N [4]: 12 and 13
Compound: TnsC (ShCAST AAA+ regulator) (natural protein)
